Reference: PMC11543927, “Subtleties in Clathrin heavy chain binding boxes provide selectivity among adaptor proteins of budding yeast” (Nature Communications, 2024)

B1: Clathrin heavy chain fused to mScarlet (Chc-mScarlet), wild type [Saccharomyces cerevisiae] / Ent2 endogenously tagged with mNeonGreen (Ent2-mNeonGreen) [Saccharomyces cerevisiae (endogenous in MK100)] (parent complex)
chain 1: MSDLPIEFTELVDLMSLGISPQFLDFRSTTFESDHFVTVRETKDGTNSVAIVDLAKGNEVTRKNMGGDSAIMHPSQMVISVRANGTIVQIFNLETKSKLKSFTLDEPVIFWRWLSETTLGFVTARSILTSNVFDGNVNAKPQLLTLRHANLNNTQIINFVANKNLDWFAVVGILQENGRIAGRIQLFSKQRNISQAIDGHVAIFTNILLEGNGSTPVQVFVTGNRNATTGAGELRIIEIDHDASLPSQYQKETTDIFFPPDATNDFPIAVQVSEKYGIIYLLTKYGFIHLYELETGTNLFVNRITAESVFTAAPYNHENGIACINKKGQVLAVEISTSQIVPYILNKLSNVALALIVATRGGLPGADDLFQKQFESLLLQNDYQNAAKVAASSTSLRNQNTINRLKNIQAPPGAISPILLYFSTLLDKGKLNKEETIELARPVLQQDRKQLFEKWLKEDKLECSEELGDIVKPFDTTLALACYLRAGAHAKVISCLAELQQFEKIIPYCQKVGYQPNFLVLISSLIRSSPDRASEFAVSLLQNPETASQIDIEKIADLFFSQNHIQQGTSLLLDALKGDTPDQGHLQTRVLEVNLLHAPQVADAILGNNIFSHYDKPTIASLSEKAGLYQRALENYTDIKDIKRCVVHTNALPIDWLVGYFGKLNVEQSLACLKALMDNNIQANIQTVVQVATKFSDLIGPSTLIKLFEDYNATEGLYYYLASLVNLTEDKDVVYKYIEAAAKMKQYREIERIVKDNNVYDPERVKNFLKDANLEDQLPLVIVCDRFDFVHEMILYLYKSQNLKFIETYVQQVNPSKTAQVVGALLDMDCDEAFIQSLLQSVLGQVPINELTTEVEKRNRLKILLPFLEQSLSQGIQDQAVYNALAKIYIDSNNSPEKFLKENDQYDTLDVGHYCEKRDPYLAYIAYEKGQNDDDLIRITNENSMYKYQARYLLERSDLDLWNKVLNQENIHRRQLIDSVISVGIPELTDPEPVSLTVQAFMTNGLKLELIELLEKIILEPSPFNENVALQGLLLLSAIKYEPTKVSSYIEKLDNYDADEIAPLCIEHDLKEEAFEIYDKHEMYGKALKVLIEDIMSLDRAASYADKINTPELWSQIGTAQLDGLRIPDAIESYIKAEDPSNYENVIDIAEQAGKYEELIPFLLMARKTLKEPKIDGALILAYAELNKIHEIENLLAGSNVANLDHVGDKLFENKEYKAARLCYSAVSNYSKLASTLVYLGDYQAAVDTARKASNIKVWKLVNDACIEKKEFKLAQICGLNLIVHAEELDELVERYESNGYFEELISLFEAGLGLERAHMGMFTELAILYSKYEPDKTFEHLKLFWSRINIPKVIRAVEQAHLWSELVFLYAHYDEWDNAALTLIEKSTKDLDHAYFKEVVVKVSNLEIYYKAINFYVKFHPSLLVDLLTSLTPRLDIPRTVKIFSKSDNLPLIKPFLINVLPKNNSVVNQAYHDLMIEEEDYKALQDAVDSYDKFDQLGLASRLESHKLIFFKKIGALLYRRNKKWAKSLSILKEEKLWKDAIETAAISQDPKVVEALLTYFVETGNREGFVALLYAAYNLVRIEFVLEISWMNSLEDYIKPFEISIKKEQNDSIKKITEELAKKSGSNEEHKDGQPLMLMNSAMNVQPTGF
chain 2: MSKQFVRSAKNMMKGYSSTQVLVRDATANDSRTPSIDTLDDLAQRSYDSVDFFEIMDMLDKRLNDKGKYWRHVAKSLTVLDYLVRFGSENCVLWCRENFYVIKTLREFRHENESGFDEGQIIRVKAKELVSLLNDEERLREERSMNTRNRRANRAARPRPRRQRTRSNPHDSSPSYQDDLEKALEESRITAQEDEQRRRELAQYDDEDPDFQAALQLSKEEEELKQLQELQRLQKQQQSLSQFQAPLQQQQPQQQPAYYDIFGNPISQDEYLQYQYQQDQEQAMAQQRWLDQQQEQQQLAEQQYFQQQQQAAAAASALQQQQTAANMQQQQQQPADFQQPLPTGSNNPFSMDNLERQKQEQQHAQLQRQQEEARQQQEQLKLQQLQRQQQEEAQLHQKRQEEAQLQQQQAQLLQQQAQFQQQQPLKQTRTGNQSISDKYSDLNTLLATGTGIDTFGNTGEARIPAQHTKTGTFINSQGTGYKQVTNEPKNNPFLSNQYTGLPSTNIVPTQTGYGFGNQPQSPPTNSPQQNPTGISYSQPQQQQQPQQQPQYMQNFQQQQPQYAQNFQQQPQYTQNYQQQPQYIQPHQQQQQQQQQQQQQQGYTPDQGVSLIDL
B2: Clathrin heavy chain fused to mScarlet (Chc-mScarlet), wild type [Saccharomyces cerevisiae] / Ent1 endogenously tagged with mNeonGreen (Ent1-mNeonGreen) [Saccharomyces cerevisiae (endogenous in MK100)] (parent complex)
chain 1: B1 chain 1
chain 2: MSKQFVRSAKNLVKGYSSTQVLVRNATSNDNHQVSKDSLIELAEKSYDSADFFEIMDMLDKRLNDKGKYWRHIAKALTVIDYLIRFGSENCVLWCRENLYIIKTLKEFRHEDDEGIDQGQIVRVKAKELTALLSDDERLNEERNMNIKGRNRKGRRRRGTGRSDENDDDLQRAISASRLTAEEDERRRKQDEDYETALQLSKEEEELKRLQDLQRMQQQQGQQQLQQPMYYDIFGNPITPEEYAQFQLQQQQQQQQQQLQQQPMYYDVFGNPITPEELAQFQQQQQLQEQQYLASMQQQQQAMSNNPFAKSEQSSSSPKRNQLVAASSPQQLQQQKQQEPLIQNRTGNQSMTDKYSKLNELLATGTGIDTFGNVGEARIPAQHTKTGTFINSQGTGYRQVSDDPNHNPFLNSQYTGLPSTSVVPTQTGYGFGNQSQQQSQNNGSNNRGYTLIDL

Variants of: B1
Test: FRET acceptor photobleaching (in vivo); room temperature (21 °C); trimmed mean; n = 98; parent: 9.02

Row | Variant | response [%]
1 | chain 1 K63E, chain 1 I87D, chain 1 Q89A, chain 1 K98E | 9.99

Variants of: B1
Test: FRET acceptor photobleaching (in vivo); room temperature (21 °C); trimmed mean; n = 127; parent: 9.02

Row | Variant | response [%]
2 | chain 1 F26A, chain 1 K63E, chain 1 I87D, chain 1 Q89A, chain 1 K98E, chain 1 Q155A, chain 1 Q195A, chain 1 I197T, chain 1 K251E | 7.03

Variants of: B1
Test: FRET acceptor photobleaching (in vivo); room temperature (21 °C); trimmed mean; n = 117; parent: 9.02

Row | Variant | response [%]
3 | chain 1 F26A, chain 1 K63E, chain 1 I87D, chain 1 Q89A, chain 1 K98E, chain 1 Q155A | 7.18

Variants of: B1
Test: FRET acceptor photobleaching (in vivo); room temperature (21 °C); trimmed mean; n = 126; parent: 9.02

Row | Variant | response [%]
4 | chain 1 F26A, chain 1 Q155A | 10.1

Variants of: B2
Test: FRET acceptor photobleaching (in vivo); room temperature (21 °C); trimmed mean; n = 102; parent: 7.87

Row | Variant | response [%]
5 | chain 1 Q195A, chain 1 I197T, chain 1 K251E | 8.6

Variants of: B2
Test: FRET acceptor photobleaching (in vivo); room temperature (21 °C); trimmed mean; n = 98; parent: 7.87

Row | Variant | response [%]
6 | chain 1 F26A, chain 1 Q155A | 8.23

Variants of: B2
Test: FRET acceptor photobleaching (in vivo); room temperature (21 °C); trimmed mean; n = 103; parent: 7.87

Row | Variant | response [%]
7 | chain 1 F26A, chain 1 Q155A, chain 1 Q195A, chain 1 I197T, chain 1 K251E | 8.19
